Data taken from patent US20240261333A1, “NOVEL TARGETS FOR ENHANCING ANTI-TUMOR IMMUNITY” (THE BROAD INSTITUTE, INC., priority 2021, published 2024).

T1: B3GNT2 (Homo sapiens, UniProt Q9NY97)
T1 construct: The respective ORFs of candidate genes [CD274 (NM_014143), MCL1 (NM_021960), JUNB (NM_002229), and B3GNT2 (NM_006577)] were synthesized; expressed in transfected cells; host or cells: A375 melanoma cells (lentiviral ORF overexpression)
T1 sequence (Q9NY97 1-397): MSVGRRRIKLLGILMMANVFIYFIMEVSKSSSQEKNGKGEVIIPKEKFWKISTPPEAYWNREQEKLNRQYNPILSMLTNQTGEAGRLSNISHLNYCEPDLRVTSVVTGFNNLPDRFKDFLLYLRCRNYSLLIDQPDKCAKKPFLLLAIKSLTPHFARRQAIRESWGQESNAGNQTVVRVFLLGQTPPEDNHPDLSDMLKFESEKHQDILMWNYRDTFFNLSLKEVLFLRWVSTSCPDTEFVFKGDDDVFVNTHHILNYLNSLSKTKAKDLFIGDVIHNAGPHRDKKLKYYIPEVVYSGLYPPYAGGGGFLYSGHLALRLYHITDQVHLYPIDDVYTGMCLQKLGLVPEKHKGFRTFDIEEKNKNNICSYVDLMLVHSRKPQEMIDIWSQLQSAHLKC


Target: T1, B3GNT2
Assay: Co-IP of FLAG-tagged B3GNT2 followed by mass spectrometry
Type: cell-based
Design: C-term IgG / C-term flag: unit not given here
Conditions: Co-IP followed by mass spectrometry of B3GNT2; for C-term flag / C-term IgG: C-term tag; for C-term flag / N-term FLAG: FLAG pull-down; for C-term IgG / N-term IgG: IgG pull-down; for N-term FLAG / N-term IgG: N-term tag
Description: Cells were plated in 10-cm cell culture dishes and grown to 60-80% confluency. For each condition, two biological replicates were harvested for co-IP. Cells were washed with PBS and 4 mL of lysis buffer (20 mM HEPES, 1% Triton X-100, 150 mM NaCl, 1 mM EDTA, and 10% glycerol) containing protease inhibitor cocktail was added. Cells were scraped and lysate was incubated at 4° C. under rotary agitation for 1 h. Lysate was centrifuged at 14,000×g for 10 min at 4° C. Supernatant was transferred to a new tube and an aliquot was taken as the input. […] For Western blots, 10 μg/mL Chicken Anti-FLAG (Aves labs ET-DY100) and IgY control (R&D Systems AB-101-C) antibodies were biotinylated (Thermo Fisher Scientific 90407) and added to the respective conditions. Lysates with antibodies were incubated at 4° C. under rotary agitation overnight. For each mL of lysate, 50 μL of Pierce Protein A/G Magnetic Beads (Mass spectrometry; Thermo Fisher Scientific 88803) or Pierce Streptavidin Magnetic Beads (Western blot; Thermo Fisher Scientific 88817) was washed twice with lysis buffer. Lysates with antibodies were added to the beads and incubated at 4° C. under rotary agitation for 4 h. Beads were washed with lysis buffer 3 times and resuspended in lysis buffer for storage. […] This solution was subjected to solid phase extraction to concentrate the peptides and remove unwanted reagents followed by injection onto a Shimadzu HPLC with fraction collector. Eight fractions were collected and after concentration were injected on a Waters NanoAcquity HPLC equipped with a self-packed Aeris 3 μm C18 analytical column 0.075 mm by 20 cm, (Phenomenex). Peptides were eluted using standard reverse-phase gradients. The effluent from the column was analyzed using a Thermo Orbitrap Elite mass spectrometer (nanospray configuration) operated in a data dependent manner for 54 minutes. […] Scaffold Q+S (Proteome Software) was used to provide consensus reports for the identified proteins.

Molecule | C-term flag | C-term IgG | N-term FLAG | N-term IgG
TMEM59 (protein) EAFDSVLGDTASCHRACQLTYPLHTYPKEEELYACQRGCRLFSICQFVDDGIDLNRTKLECESACTEAYSQSDEQYACHLGCQNQLPFAELRQEQLMSLMPKMHLLFPLTLVRSFWSDMMDSAQSFITSSWTFYLQADDGKIVIFQSKPEIQYAPHLEQEPTNLRESSLSKMSYLQMRNSQAHRNFLEDGESDGFLRCLSLNSGWILTTTLVLSVMVLLWICCATVATAVEQYVPSEKLSIYGDLEFMNEQKLNRYPASSLVVVRSKTEDHEEAGPLPTKVNLAHSEI | 0 | 0 | 6 | 0
PBXIP1 (protein) MDPESERALQAPHSPSKTDGKELAGTMDGEGTLFQTESPQSGSILTEETEVKGTLEGDVCGVEPPGPGDTVVQGDLQETTVVTGLGPDTQDLEGQSPPQSLPSTPKAAWIREEGRCSSSDDDTDVDMEGLRRRRGREAGPPQPMVPLAVENQAGGEGAGGELGISLNMCLLGALVLLGLGVLLFSGGLSESETGPMEEVERQVLPDPEVLEAVGDRQDGLREQLQAPVPPDSVPSLQNMGLLLDKLAKENQDIRLLQAQLQAQKEELQSLMHQPKGLEEENAQLRGALQQGEAFQRALESELQQLRARLQGLEADCVRGPDGVCLSGGRGPQGDKAIREQGPREQEPELSFLKQKEQLEAEAQALRQELERQRRLLGSVQQDLERSLQDASRGDPAHAGLAELGHRLAQKLQGLENWGQDPGVSANASKAWHQKSHFQNSREWSGKEKWWDGQRDRKAEHWKHKKEESGRERKKNWGGQEDREPAGRWKEGRPRVEESGSKKEGKRQGPKEPPRKSGSFHSSGEKQKQPRWREGTKDSHDPLPSWAELLRPKYRAPQGCSGVDECARQEGLTFFGTELAPVRQQELASLLRTYLARLPWAGQLTKELPLSPAFFGEDGIFRHDRLRFRDFVDALEDSLEEVAVQQTGDDDEVDDFEDFIFSHFFGDKALKKRSGKKDKHSQSPRAAGPREGHSHSHHHHHRG | 4 | 0 | 2 | 0
MTCH2 (protein, UniProt Q9Y6C9 2-303, looked up) Mitochondrial carrier homolog …: ADAASQVLLGSGLTILSQPLMYVKVLIQVGYEPLPPTIGRNIFGRQVCQLPGLFSYAQHIASIDGRRGLFTGLTPRLCSGVLGTVVHGKVLQHYQESDKGEELGPGNVQKEVSSSFDHVIKETTREMIARSAATLITHPFHVITLRSMVQFIGRESKYCGLCDSIITIYREEGILGFFAGLVPRLLGDILSLWLCNSLAYLVNTYALDSGVSTMNEMKSYSQAVTGFFASMLTYPFVLVSNLMAVNNCGLAGGCPPYSPIYTSWIDCWCMLQKEGNMSRGNSLFFRKVPFGKTYCCDLKMLI | 2 | 0 | 4 | 0
ARG1 (protein) MSAKSRTIGIIGAPFSKGQPRGGVEEGPTVLRKAGLLEKLKEQECDVKDYGDLPFADIPNDSPFQIVKNPRSVGKASEQLAGKVAEVKKNGRISLVLGGDHSLAIGSISGHARVHPDLGVIWVDAHTDINTPLTTTSGNLHGQPVSFLLKELKGKIPDVPGFSWVTPCISAKDIVYIGLRDVDPGEHYILKTLGIKYFSMTEVDRLGIGKVMEETLSYLLGRKKRPIHLSFDVDGLDPSFTPATGTPVVGGLTYREGLYITEEIYKTGLLSGLDIMEVNPSLGKTPEEVTRTVNTAVAITLACFGLAREGNHKPIDYLNPPK | 6 | 4 | 8 | 4
MTDH (protein, UniProt Q86UE4 1-582, looked up) Protein LYRIC: MAARSWQDELAQQAEEGSARLREMLSVGLGFLRTELGLDLGLEPKRYPGWVILVGTGALGLLLLFLLGYGWAAACAGARKKRRSPPRKREEAAAVPAAAPDDLALLKNLRSEEQKKKNRKKLSEKPKPNGRTVEVAEGEAVRTPQSVTAKQPPEIDKKNEKSKKNKKKSKSDAKAVQNSSRHDGKEVDEGAWETKISHREKRQQRKRDKVLTDSGSLDSTIPGIENTITVTTEQLTTASFPVGSKKNKGDSHLNVQVSNFKSGKGDSTLQVSSGLNENLTVNGGGWNEKSVKLSSQISAGEEKWNSVSPASAGKRKTEPSAWSQDTGDANTNGKDWGRSWSDRSIFSGIGSTAEPVSQSTTSDYQWDVSRNQPYIDDEWSGLNGLSSADPNSDWNAPAEEWGNWVDEERASLLKSQEPIPDDQKVSDDDKEKGEGALPTGKSKKKKKKKKKQGEDNSTAQDTEELEKEIREDLPVNTSKTRPKQEKAFSLKTISTSDPAEVLVKNSQPIKTLPPATSTEPSVILSKSDSDKSSSQVPPILQETDKSKSNTKQNSVPPSQTKSETSWESPKQIKKKKKARRET | 6 | 0 | 0 | 0
LIMA1 (protein) MESSPFNRRQWTSLSLRVTAKELSLVNKNKSSAIVEIFSKYQKAAEETNMEKKRSNTENLSQHFRKGTLTVLKKKWENPGLGAESHTDSLRNSSTEIRHRADHPPAEVTSHAASGAKADQEEQIHPRSRLRSPPEALVQGRYPHIKDGEDLKDHSTESKKMENCLGESRHEVEKSEISENTDASGKIEKYNVPLNRLKMMFEKGEPTQTKILRAQSRSASGRKISENSYSLDDLEIGPGQLSSSTFDSEKNESRRNLELPRLSETSIKDRMAKYQAAVSKQSSSTNYTNELKASGGEIKIHKMEQKENVPPGPEVCITHQEGEKISANENSLAVRSTPAEDDSPGDSQVKSEVQQPVHPKPLSPDSRASSLSESSPPKAMKKFQAPARETCVECQKTVYPMERLLANQQVFHISCFRCSYCNNKLSLGTYASLHGRIYCKPHFNQLFKSKGNYDEGFGHRPHKDLWASKNENEEILERPAQLANARETPHSPGVEDAPIAKVGVLAASMEAKASSQQEKEDKPAETKKLRIAWPPPTELGSSGSALEEGIKMSKPKWPPEDEISKPEVPEDVDLDLKKLRRSSSLKERSRPFTVAASFQSTSVKSPKTVSPPIRKGWSMSEQSEESVGGRVAERKQVENAKASKKNGNVGKTTWQNKESKGETGKRSKEGHSLEMENENLVENGADSDEDDNSFLKQQSPQEPKSLNWSSFVDNTFAEEFTTQNQKSQDVELWEGEVVKELSVEEQIKRNRYYDEDEDEE | 2 | 0 | 4 | 3
DDX20 (protein) MAAAFEASGALAAVATAMPAEHVAVQVPAPEPTPGPVRILRTAQDLSSPRTRTGDVLLAEPADFESLLLSRPVLEGLRAAGFERPSPVQLKAIPLGRCGLDLIVQAKSGTGKTCVFSTIALDSLVLENLSTQILILAPTREIAVQIHSVITAIGIKMEGLECHVFIGGTPLSQDKTRLKKCHIAVGSPGRIKQLIELDYLNPGSIRLFILDEADKLLEEGSFQEQINWIYSSLPASKQMLAVSATYPEFLANALTKYMRDPTFVRLNSSDPSLIGLKQYYKVVNSYPLAHKVFEEKTQHLQELFSRIPFNQALVFSNLHSRAQHLADILSSKGFPAECISGNMNQNQRLDAMAKLKHFHCRVLISTDLTSRGIDAEKVNLVVNLDVPLDWETYMHRIGRAGRFGTLGLTVTYCCRGEEENMMMRIAQKCNINLLPLPDPIPSGLMEECVDWDVEVKAAVHTYGIASVPNQPLKKQIQKIERTLQIQKAHGDHMASSRNNSVSGLSVKSKNNTKQKLPVKSHSECGIIEKATSPKELGCDRQSEEQMKNSVQTPVENSTNSQHQVKEALPVSLPQIPCLSSFKIHQPYTLTFAELVEDYEHYIKEGLEKPVEIIRHYTGPGDQTVNPQNGFVRNKVIEQRVPVLASSSQSGDSESDSDSYSSRTSSQSKGNKSYLEGSSDNQLKDSESTPVDDRISLEQPPNGSDTPNPEKYQESPGIQMKTRLKEGASQRAKQSRRNLPRRSSFRLQTEAQEDDWYDCHREIRLSFSDTYQDYEEYWRAYYRAWQEYYAAASHSYYWNAQRHPSWMAAYHMNTIYLQEMMHSNQ | 6 | 0 | 0 | 0
NCCRP1 (protein) MEEVREGHALGGGMEADGPASLQELPPSPRSPSPPPSPPPLPSPPSLPSPAAPEAPELPEPAQPSEAHARQLLLEEWGPLSGGLELPQRLTWKLLLLRRPLYRNLLRSPNPEGINIYEPAPPTGPTQRPLETLGNFRGWYIRTEKLQQNQSWTVKQQCVDLLAEGLWEELLDDEQPAITVMDWFEDSRLDACVYELHVWLLAADRRTVIAQHHVAPRTSGRGPPGRWVQVSHVFRHYGPGVRFIHFLHKAKNRMEPGGLRRTRVTDSSVSVQLRE | 4 | 0 | 4 | 4
